This is an account of results in paper PMC6555819, “Comprehensive study of nuclear receptor DNA binding provides a revised framework for understanding receptor specificity”.

The target of one data set is RXRa (Homo sapiens, UniProt P19793). As to the kind of experiment: no ligand; PBM; 180 nM; PBS pH 7.4, 2% milk, 0.02% Triton X-100, 1 mM DTT, BSA, 0.4 mg/ml salmon testes DNA. The following applies: tags: His cleaved; chain copies: 2; label: surface-attached array probe.
For a further data set, the target named is RARg:RXRa (Homo sapiens, UniProt P13631;P19793 full;full). Nature of the data set: no ligand; PBM; 270 nM : 90 nM RXRa; PBS pH 7.4, 2% milk, 0.02% Triton X-100, 1 mM DTT, BSA, 0.4 mg/ml salmon testes DNA. To be noted: tags: His kept;His cleaved; copies: 1;1; label: surface-attached array probe. The method, boiled down: (§1)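 On custom Agilent 4×180K arrays, double-stranded probes with 34-nt variable regions carried direct-repeat seeds, single-nucleotide variants, half-site ablations or random human genomic background. Ligand-free nuclear receptor dimers were applied for 1 h, and binding was read with antibodies against each partner (one per run). Binding z-scores come from regression-normalized fluorescence, with the random background probes as reference.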

For the next data set, the target named is PPARa:RXRa (Homo sapiens, UniProt Q07869;P19793 full;full). Described as above. To be noted: tags: GST kept;His cleaved; copies: 1;1; label: surface-attached array probe. The method in brief:
as §1

PPARa:RXRa, sequence (Q07869 whole entry, chain 1 of 2): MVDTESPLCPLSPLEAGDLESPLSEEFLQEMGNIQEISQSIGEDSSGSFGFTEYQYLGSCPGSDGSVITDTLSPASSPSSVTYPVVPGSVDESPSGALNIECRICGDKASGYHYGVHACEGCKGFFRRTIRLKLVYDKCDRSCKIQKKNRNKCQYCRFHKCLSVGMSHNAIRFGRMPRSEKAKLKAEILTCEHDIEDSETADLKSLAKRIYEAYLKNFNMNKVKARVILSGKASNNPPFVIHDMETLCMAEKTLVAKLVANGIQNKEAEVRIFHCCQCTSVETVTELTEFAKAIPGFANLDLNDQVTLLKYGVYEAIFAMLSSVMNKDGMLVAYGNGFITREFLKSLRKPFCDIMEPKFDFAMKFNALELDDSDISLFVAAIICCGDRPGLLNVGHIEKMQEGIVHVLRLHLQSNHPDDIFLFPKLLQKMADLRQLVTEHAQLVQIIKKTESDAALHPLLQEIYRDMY
PPARa:RXRa, sequence (P19793 whole entry, chain 2 of 2): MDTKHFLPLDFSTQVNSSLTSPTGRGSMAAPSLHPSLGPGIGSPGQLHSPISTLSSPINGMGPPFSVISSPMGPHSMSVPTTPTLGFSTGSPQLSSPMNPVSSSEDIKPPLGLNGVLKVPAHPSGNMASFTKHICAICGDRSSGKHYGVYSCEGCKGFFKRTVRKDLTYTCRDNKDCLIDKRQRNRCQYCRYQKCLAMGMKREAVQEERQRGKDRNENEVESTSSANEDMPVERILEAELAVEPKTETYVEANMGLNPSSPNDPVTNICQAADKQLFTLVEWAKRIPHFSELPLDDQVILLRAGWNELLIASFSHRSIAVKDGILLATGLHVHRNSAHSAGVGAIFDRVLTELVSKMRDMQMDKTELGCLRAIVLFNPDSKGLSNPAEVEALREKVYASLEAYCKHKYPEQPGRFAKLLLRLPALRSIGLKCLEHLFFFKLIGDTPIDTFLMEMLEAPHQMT
RXRa, sequence (P19793 whole entry): as the sequence (P19793 whole entry, chain 2 of 2) above
RARg:RXRa, sequence (P13631 whole entry, chain 1 of 2): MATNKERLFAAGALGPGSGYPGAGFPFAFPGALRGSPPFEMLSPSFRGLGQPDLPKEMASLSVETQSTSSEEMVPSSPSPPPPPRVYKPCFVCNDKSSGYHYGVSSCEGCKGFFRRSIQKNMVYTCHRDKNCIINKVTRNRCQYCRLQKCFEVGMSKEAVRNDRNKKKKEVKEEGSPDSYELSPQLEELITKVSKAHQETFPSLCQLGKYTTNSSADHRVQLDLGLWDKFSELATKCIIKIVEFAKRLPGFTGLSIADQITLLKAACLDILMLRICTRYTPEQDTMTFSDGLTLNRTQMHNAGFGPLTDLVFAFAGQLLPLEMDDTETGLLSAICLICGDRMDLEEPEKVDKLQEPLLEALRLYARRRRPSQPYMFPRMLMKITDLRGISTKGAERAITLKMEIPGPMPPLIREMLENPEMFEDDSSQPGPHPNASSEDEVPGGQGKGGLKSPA
RARg:RXRa, sequence (P19793 whole entry, chain 2 of 2): as the sequence (P19793 whole entry, chain 2 of 2) above

B1: NRC3_wobSeed97_DR4_T8C_o1 (dsDNA)
DNA 1: GCCAAACCAGGTCACGAAAGGTCAAAGTCGAATGACGCGATTGACAGCGTAGAATGAAGG
DNA 2: CCTTCATTCTACGCTGTCAATCGCGTCATTCGACTTTGACCTTTCGTGACCTGGTTTGGC
Regarding B1, the binding signal with RXRa is 9.26 PBM z-score against 500 random probes; with RARg:RXRa it was 8.22 PBM z-score against 500 random probes.

B2: NRC3_random_hg19_34_o1 (dsDNA)
DNA 1: GCATGATGCCTCCTTGGAGAAGTCCTGCATTCATCCGCGATTGACAGCGTAGAATGAAGG
DNA 2: CCTTCATTCTACGCTGTCAATCGCGGATGAATGCAGGACTTCTCCAAGGAGGCATCATGC
As for B2, the binding signal with RXRa is -0.46 PBM z-score against 500 random probes.

B3: NRC3_wobSeed39_DR1_G10A_o1 (dsDNA)
DNA 1: GCCGAACTAAGTCAAAGGACAGTGAAAGGCGACGTAGCGATTGACAGCGTAGAATGAAGG
DNA 2: CCTTCATTCTACGCTGTCAATCGCTACGTCGCCTTTCACTGTCCTTTGACTTAGTTCGGC
As for B3, the binding signal in the data set with RXRa is 0.22 PBM z-score against 500 random probes.

B4: NRC3_random_hg19_89_o1 (dsDNA)
DNA 1: GCCAAGATGAATCAGAAGCATGCCATCCGAATTCCAGCGATTGACAGCGTAGAATGAAGG
DNA 2: CCTTCATTCTACGCTGTCAATCGCTGGAATTCGGATGGCATGCTTCTGATTCATCTTGGC
Take B4: the binding signal in the data set with RXRa is -0 PBM z-score against 500 random probes.

B5: NRC3_random_hg19_292_o1 (dsDNA)
DNA 1: GCCAAGACCCTAAGGAACCACTGTGTGGGATGTCAGGCGATTGACAGCGTAGAATGAAGG
DNA 2: CCTTCATTCTACGCTGTCAATCGCCTGACATCCCACACAGTGGTTCCTTAGGGTCTTGGC
Consider B5, for which the binding signal with RXRa was 0.44 PBM z-score against 500 random probes.

B6: NRC3_wobSeed27_DR1_G17T_o1 (dsDNA)
DNA 1: GCACTCGGAGGACAAATGTCAGAGCTACGCCAGTGAGCGATTGACAGCGTAGAATGAAGG
DNA 2: CCTTCATTCTACGCTGTCAATCGCTCACTGGCGTAGCTCTGACATTTGTCCTCCGAGTGC
As for B6, in the data set with RXRa, the binding signal is 0.08 PBM z-score against 500 random probes.

B7: NRC3_random_hg19_160_o1 (dsDNA)
DNA 1: GCATCCCTGCAATGGCCTGCAAAGTTACAGGTTGCAGCGATTGACAGCGTAGAATGAAGG
DNA 2: CCTTCATTCTACGCTGTCAATCGCTGCAACCTGTAACTTTGCAGGCCATTGCAGGGATGC
Take B7: the binding signal in the data set with RXRa is -0.41 PBM z-score against 500 random probes.

B8: NRC3_random_hg19_376_o1 (dsDNA)
DNA 1: GCTTCCTCTTCCTCTGTGCCTGTGTAGCCTCCATCCGCGATTGACAGCGTAGAATGAAGG
DNA 2: CCTTCATTCTACGCTGTCAATCGCGGATGGAGGCTACACAGGCACAGAGGAAGAGGAAGC
With B8, the binding signal with RXRa was -0.77 PBM z-score against 500 random probes.

B9: NRC3_random_hg19_366_o1 (dsDNA)
DNA 1: GCACTACTACTGCTGTTGAGAAACCTGCATTGTGGCGCGATTGACAGCGTAGAATGAAGG
DNA 2: CCTTCATTCTACGCTGTCAATCGCGCCACAATGCAGGTTTCTCAACAGCAGTAGTAGTGC
As for B9, in the data set with RXRa, the binding signal is -0.56 PBM z-score against 500 random probes.

B10: NRC3_wobSeed90_DR3_T12A_o1 (dsDNA)
DNA 1: GCCATACAGGGACAGCTAGGCCAGAGTAGGGACGGCGCGATTGACAGCGTAGAATGAAGG
DNA 2: CCTTCATTCTACGCTGTCAATCGCGCCGTCCCTACTCTGGCCTAGCTGTCCCTGTATGGC
As to B10, the binding signal in the data set with RXRa is 0.2 PBM z-score against 500 random probes.

B11: NRC3_random_hg19_301_o1 (dsDNA)
DNA 1: GCGAGAACAGACTAACACACACACACACACACACACGCGATTGACAGCGTAGAATGAAGG
DNA 2: CCTTCATTCTACGCTGTCAATCGCGTGTGTGTGTGTGTGTGTGTGTTAGTCTGTTCTCGC
As to B11, in the data set with RXRa, the binding signal was 0.4 PBM z-score against 500 random probes.

B12: NRC3_random_hg19_95_o1 (dsDNA)
DNA 1: GCATCTTCAGTATGTTTCATTCAGTAGCTCAGTGGCGCGATTGACAGCGTAGAATGAAGG
DNA 2: CCTTCATTCTACGCTGTCAATCGCGCCACTGAGCTACTGAATGAAACATACTGAAGATGC
With B12, the values for the binding signal with RXRa and in the data set with PPARa:RXRa were -0.26 PBM z-score against 500 random probes and -0.24 PBM z-score against 500 random probes, respectively.

B13: NRC3_wobSeed61_DR2_G10C_o1 (dsDNA)
DNA 1: GCCGTCCAACGTCAGCAGGTCAGTGAAAGCGACGTGGCGATTGACAGCGTAGAATGAAGG
DNA 2: CCTTCATTCTACGCTGTCAATCGCCACGTCGCTTTCACTGACCTGCTGACGTTGGACGGC
In the case of B13, the results for the binding signal with RXRa and with PPARa:RXRa were 0.42 PBM z-score against 500 random probes and 0.49 PBM z-score against 500 random probes, respectively.

B14: NRC3_random_hg19_240_o1 (dsDNA)
DNA 1: GCGACCATCTCCACACTGCACGATGATGAGATCCTGGCGATTGACAGCGTAGAATGAAGG
DNA 2: CCTTCATTCTACGCTGTCAATCGCCAGGATCTCATCATCGTGCAGTGTGGAGATGGTCGC
In the case of B14, in the data set with RXRa, the binding signal is 0.1 PBM z-score against 500 random probes.

B15: NRC3_random_hg19_498_o1 (dsDNA)
DNA 1: GCGACCACAGGTATAGTGTGCTGGACTATGTTCCAGGCGATTGACAGCGTAGAATGAAGG
DNA 2: CCTTCATTCTACGCTGTCAATCGCCTGGAACATAGTCCAGCACACTATACCTGTGGTCGC
For B15, in the data set with RXRa, the binding signal is -0.31 PBM z-score against 500 random probes.

B16: NRC3_random_hg19_2_o1 (dsDNA)
DNA 1: GCGTAACAAGAACAAGGCCATACTTTCATGCATCTAGCGATTGACAGCGTAGAATGAAGG
DNA 2: CCTTCATTCTACGCTGTCAATCGCTAGATGCATGAAAGTATGGCCTTGTTCTTGTTACGC
In the case of B16, the binding signal with RXRa was 0.08 PBM z-score against 500 random probes.

B17: NRC3_random_hg19_21_o1 (dsDNA)
DNA 1: GCAACATTTCAGTATACTTTCTAGCAACTCTGGGTAGCGATTGACAGCGTAGAATGAAGG
DNA 2: CCTTCATTCTACGCTGTCAATCGCTACCCAGAGTTGCTAGAAAGTATACTGAAATGTTGC
Take B17: the results for the binding signal with RXRa and with PPARa:RXRa were 0.34 PBM z-score against 500 random probes and 0.2 PBM z-score against 500 random probes, respectively.

B18: NRC3_random_hg19_79_o1 (dsDNA)
DNA 1: GCCAGTGTCCTCCTGAGAATTGGTTGTGTTGGGCAGGCGATTGACAGCGTAGAATGAAGG
DNA 2: CCTTCATTCTACGCTGTCAATCGCCTGCCCAACACAACCAATTCTCAGGAGGACACTGGC
With B18, the binding signal in the data set with RXRa was -0.79 PBM z-score against 500 random probes.

B19: NRC3_wobSeed76_DR3_C22A_o1 (dsDNA)
DNA 1: GCCCTACTGGGCCAAAAAGGTAATTGATGCCGATAAGCGATTGACAGCGTAGAATGAAGG
DNA 2: CCTTCATTCTACGCTGTCAATCGCTTATCGGCATCAATTACCTTTTTGGCCCAGTAGGGC
In the case of B19, in the data set with RXRa, the binding signal was 0.01 PBM z-score against 500 random probes.

B20: NRC3_random_hg19_236_o1 (dsDNA)
DNA 1: GCGCCTAGCACTTGTGTTGACCATTCATTCAGTGCTGCGATTGACAGCGTAGAATGAAGG
DNA 2: CCTTCATTCTACGCTGTCAATCGCAGCACTGAATGAATGGTCAACACAAGTGCTAGGCGC
For B20, in the data set with RXRa, the binding signal is -0.35 PBM z-score against 500 random probes.

B21: NRC3_wobSeed88_DR3_o1 (dsDNA)
DNA 1: GCTAGCCTAGGTCATGCGGGCCAGTATAGTGTCGGCGCGATTGACAGCGTAGAATGAAGG
DNA 2: CCTTCATTCTACGCTGTCAATCGCGCCGACACTATACTGGCCCGCATGACCTAGGCTAGC
In the case of B21, the binding signal is 3.04 PBM z-score against 500 random probes with RXRa and 3.33 PBM z-score against 500 random probes with PPARa:RXRa.

B22: NRC3_random_hg19_365_o1 (dsDNA)
DNA 1: GCAGTAGACACAGGGTTTCACCGTGTTGGCCAGGATGCGATTGACAGCGTAGAATGAAGG
DNA 2: CCTTCATTCTACGCTGTCAATCGCATCCTGGCCAACACGGTGAAACCCTGTGTCTACTGC
Turning to B22, the binding signal with RXRa was 0.03 PBM z-score against 500 random probes.
